According to patent US20050282743A1, “Molecular interactions in cells” (Arbor Vita Corporation, priority 2001, published 2005):
pKd: −log10 of the molar value. Values belong to the molecule of their own block, whether it stands above or below them. Ends that are not written are not given here. Peptide text beside a SMILES is read from it. * marks the point of attachment. Biotin = O=C1N[C@H]2[C@H](CS[C@H]2CCCCC(=O)*)N1

What was measured:
Type in all cases: binding
[1] = target: T1, PDZ protein (GST-PDZ fusion) (Homo sapiens, UniProt Q12923); experiment: G' assay (10 uM PL peptide), results of TABLE 7 and TABLE 12
T1 construct: made in house; host or cells: E. coli (DH5alpha, BL21 or JM109)
How it was run: (§1)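 Biotin-PL peptide (N-term label), 10 uM vs GST-PDZ; protein 5 ug/ml by default. A450 nm binned: 1 = 0-1, 2 = 1-2, 3 = 2-3, 4 = 3-4, 5 = >4 on >2 repeats, 0 = no binding.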

[2] = target: T2, PDZ protein (GST-PDZ fusion) (Homo sapiens, UniProt Q5TCQ9); experiment: as above
T2 construct: made in house; host or cells: E. coli (DH5alpha, BL21 or JM109)
T2 sequence (Q5TCQ9 1-1481): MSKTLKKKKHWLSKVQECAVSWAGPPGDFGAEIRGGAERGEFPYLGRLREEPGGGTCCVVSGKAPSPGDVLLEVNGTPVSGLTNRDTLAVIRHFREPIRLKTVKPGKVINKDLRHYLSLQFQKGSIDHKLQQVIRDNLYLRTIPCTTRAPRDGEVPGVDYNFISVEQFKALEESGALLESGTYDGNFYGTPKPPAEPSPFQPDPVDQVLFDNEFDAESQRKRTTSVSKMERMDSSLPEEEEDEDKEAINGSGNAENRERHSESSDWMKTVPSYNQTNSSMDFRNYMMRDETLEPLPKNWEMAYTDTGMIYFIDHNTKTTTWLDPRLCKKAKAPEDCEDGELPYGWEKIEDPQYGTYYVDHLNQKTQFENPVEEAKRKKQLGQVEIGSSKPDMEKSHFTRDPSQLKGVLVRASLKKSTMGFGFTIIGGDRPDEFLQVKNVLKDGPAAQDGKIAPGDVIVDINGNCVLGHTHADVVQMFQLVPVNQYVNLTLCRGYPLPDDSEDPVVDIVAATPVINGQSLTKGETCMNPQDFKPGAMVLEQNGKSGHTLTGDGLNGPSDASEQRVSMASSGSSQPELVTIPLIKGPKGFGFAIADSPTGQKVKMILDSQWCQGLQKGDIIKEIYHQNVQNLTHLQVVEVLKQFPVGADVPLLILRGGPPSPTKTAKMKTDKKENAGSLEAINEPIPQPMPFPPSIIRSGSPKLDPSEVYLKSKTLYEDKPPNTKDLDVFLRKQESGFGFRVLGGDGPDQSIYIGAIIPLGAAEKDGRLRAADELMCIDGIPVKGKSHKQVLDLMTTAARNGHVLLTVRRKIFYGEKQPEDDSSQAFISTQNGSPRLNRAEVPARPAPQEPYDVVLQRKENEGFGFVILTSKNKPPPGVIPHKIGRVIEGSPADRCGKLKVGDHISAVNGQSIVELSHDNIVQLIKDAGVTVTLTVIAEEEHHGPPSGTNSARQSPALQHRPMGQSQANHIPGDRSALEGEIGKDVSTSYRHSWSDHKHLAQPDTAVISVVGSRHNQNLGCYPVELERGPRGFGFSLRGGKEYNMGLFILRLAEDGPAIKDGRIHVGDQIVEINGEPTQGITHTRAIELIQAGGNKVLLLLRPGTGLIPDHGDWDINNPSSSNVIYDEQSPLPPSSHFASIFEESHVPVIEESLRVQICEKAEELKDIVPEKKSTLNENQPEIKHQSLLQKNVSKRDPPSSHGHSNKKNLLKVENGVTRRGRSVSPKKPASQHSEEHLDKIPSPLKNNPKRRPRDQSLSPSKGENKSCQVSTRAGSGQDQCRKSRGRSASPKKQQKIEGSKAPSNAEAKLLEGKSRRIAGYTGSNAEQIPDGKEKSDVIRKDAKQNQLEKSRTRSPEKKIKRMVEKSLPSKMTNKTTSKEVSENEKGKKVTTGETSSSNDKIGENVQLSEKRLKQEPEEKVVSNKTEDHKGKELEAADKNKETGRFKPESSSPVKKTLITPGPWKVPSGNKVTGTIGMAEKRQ
How it was run: as §1

[3] = target: T3, PDZ-domain polypeptide (GST/PDZ fusion protein) (Homo sapiens, UniProt Q12923); experiment: Apparent affinity (Kd) by titration of PL peptide in the G assay; conditions: PDZ PTPL-1, PDZ Domain 2; read-out: Peptide Optimal Conc (non-zero value: Kd by titration of the PL peptide)
T3 construct: made in house; host or cells: E. coli (DH5alpha, BL21 or JM109)
Experimental: (§2) The third column labeled “Peptide Optimal Concentration” in the tables is a number reflective of the binding interaction between the PL protein and PDZ protein. […] The column labeled “Protein Optimal Concentration” refers to the protein concentration used to assay PL interaction (in ug/ml); a ‘0’ is indicative of 5 ug/ml protein concentration; any other value represents the concentration (in ug/ml) used to determine the dissociation constant for a given interaction.
(§3) The “A” and “G” assays described supra can be used to determine the “apparent affinity” of binding of a PDZ ligand peptide to a PDZ-domain polypeptide. Apparent affinity is determined based on the concentration of one molecule required to saturate the binding of a second molecule (e.g., the binding of a ligand to a receptor). Two particularly useful approaches for quantitation of apparent affinity of PDZ-ligand binding are provided infra.
(§4) In cases where satisfying the above criteria proves difficult, an alternative approach (infra) can be used.
(§5) (1) A fixed concentration of a PDZ-domain polypeptide and increasing concentrations of a labeled PL peptide (labeled with, for example, biotin or fluorescein, see TABLE 9 for representative peptide amino acid sequences) are mixed together in solution and allowed to react. In certain assays, peptide concentrations are 0.1 uM, 1 uM, 10 uM, 100 uM, 1 mM. In other assays, appropriate reaction times can range from 10 minutes to 2 days at temperatures ranging from 4° C. to 37° C. In some instances, the identical reaction can also be carried out using a non-PDZ domain-containing protein as a control (e.g., if the PDZ-domain polypeptide is fusion protein, the fusion partner can be used).
(§6) (2) PDZ-ligand complexes can be separated from unbound labeled peptide using a variety of methods known in the art.
(§7) (3) The PDZ-ligand complex is detected based on presence of the label on the peptide ligand using a variety of methods and detectors known to one of skill in the art. For example, if the label is fluorescein and the separation is achieved using HPSEC, an in-line fluorescence detector can be used. The binding can also be detected as described supra for the G assay.

[4] = target: T4, PDZ-domain polypeptide (GST/PDZ fusion protein) (Homo sapiens, UniProt Q5TCQ9); experiment: as above; conditions: PDZ KIAA1634, PDZ Domain 2; read-out: Peptide Optimal Conc (non-zero value: Kd by titration of the PL peptide)
T4 construct: made in house; host or cells: E. coli (DH5alpha, BL21 or JM109)
T4 sequence (Q5TCQ9 1-1481): T2 sequence (Q5TCQ9 1-1481)
Experimental: as §2, §3, §4, §5, §6, §7

[5] = target: T5, PDZ protein (GST-PDZ fusion) (Homo sapiens, UniProt O14908); experiment: G' assay (10 uM PL peptide), results of TABLE 7 and TABLE 12; conditions: PDZ TAX IP2, PDZ Domain 1
T5 construct: made in house; host or cells: E. coli (DH5alpha, BL21 or JM109)
T5 sequence (O14908 1-333): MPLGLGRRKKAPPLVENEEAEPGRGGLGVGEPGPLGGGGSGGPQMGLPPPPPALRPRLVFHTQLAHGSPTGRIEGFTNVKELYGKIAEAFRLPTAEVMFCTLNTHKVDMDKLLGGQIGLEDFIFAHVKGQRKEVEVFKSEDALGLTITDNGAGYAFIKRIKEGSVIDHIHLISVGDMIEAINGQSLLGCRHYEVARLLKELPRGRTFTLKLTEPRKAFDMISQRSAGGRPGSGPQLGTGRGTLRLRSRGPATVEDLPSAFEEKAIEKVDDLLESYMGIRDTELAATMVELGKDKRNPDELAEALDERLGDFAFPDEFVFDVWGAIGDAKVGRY
How it was run: as §1

[6] = target: T6, PDZ protein (GST-PDZ fusion) (Homo sapiens, UniProt Q6P0Q8); experiment: as above
T6 construct: made in house; host or cells: E. coli (DH5alpha, BL21 or JM109)
How it was run: as §1

[7] = target: PDZ-domain polypeptide (GST/PDZ fusion protein); experiment: Apparent affinity (Kd) by titration of PL peptide in the G assay; conditions: PDZ TAX IP2, PDZ Domain 1; read-out: Peptide Optimal Conc (Kd by titration of the PL peptide)
Experimental: as §2, §3, §4, §5, §6, §7

[8] = target: T7, PDZ protein (GST-PDZ fusion) (Homo sapiens, UniProt P55196); experiment: G' assay (10 uM PL peptide), results of TABLE 7 and TABLE 12; conditions: PDZ AF6, PDZ Domain 1
T7 construct: made in house; host or cells: E. coli (DH5alpha, BL21 or JM109)
How it was run: as §1

[9] = target: T8, PDZ protein (GST-PDZ fusion) (Homo sapiens, UniProt Q02410); experiment: as above; conditions: PDZ Mint 1, PDZ Domain 1, 2
T8 construct: made in house; host or cells: E. coli (DH5alpha, BL21 or JM109)
T8 sequence (Q02410 1-837): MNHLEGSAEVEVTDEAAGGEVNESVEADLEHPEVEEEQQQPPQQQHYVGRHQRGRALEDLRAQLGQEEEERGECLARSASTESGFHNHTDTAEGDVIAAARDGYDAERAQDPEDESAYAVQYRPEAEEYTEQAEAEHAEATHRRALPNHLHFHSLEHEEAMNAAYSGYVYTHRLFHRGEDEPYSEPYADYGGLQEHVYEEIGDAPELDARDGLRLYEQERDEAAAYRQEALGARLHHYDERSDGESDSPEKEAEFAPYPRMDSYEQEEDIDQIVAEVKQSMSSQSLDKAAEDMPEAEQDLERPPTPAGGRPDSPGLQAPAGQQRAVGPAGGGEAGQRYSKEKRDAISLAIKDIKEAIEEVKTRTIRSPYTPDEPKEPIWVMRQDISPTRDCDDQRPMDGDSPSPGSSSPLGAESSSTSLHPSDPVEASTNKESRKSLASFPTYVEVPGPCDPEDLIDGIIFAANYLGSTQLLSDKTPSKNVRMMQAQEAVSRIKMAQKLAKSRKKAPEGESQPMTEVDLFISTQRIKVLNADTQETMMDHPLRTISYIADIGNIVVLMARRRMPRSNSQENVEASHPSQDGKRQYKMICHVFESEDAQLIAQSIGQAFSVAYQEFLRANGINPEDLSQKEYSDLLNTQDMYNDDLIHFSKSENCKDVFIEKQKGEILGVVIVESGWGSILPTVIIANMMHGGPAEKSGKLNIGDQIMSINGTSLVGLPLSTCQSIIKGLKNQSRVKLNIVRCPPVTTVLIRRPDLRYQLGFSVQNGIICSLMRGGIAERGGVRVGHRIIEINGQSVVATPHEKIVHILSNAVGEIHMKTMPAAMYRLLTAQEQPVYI
How it was run: as §1

[10] = target: T9, PDZ protein (GST-PDZ fusion) (Homo sapiens, UniProt Q8NI35); experiment: as above; conditions: PDZ INADL, PDZ Domain 3
T9 construct: made in house; host or cells: E. coli (DH5alpha, BL21 or JM109)
How it was run: as §1

T7 sequence (P55196 whole entry, the tested form may be a part): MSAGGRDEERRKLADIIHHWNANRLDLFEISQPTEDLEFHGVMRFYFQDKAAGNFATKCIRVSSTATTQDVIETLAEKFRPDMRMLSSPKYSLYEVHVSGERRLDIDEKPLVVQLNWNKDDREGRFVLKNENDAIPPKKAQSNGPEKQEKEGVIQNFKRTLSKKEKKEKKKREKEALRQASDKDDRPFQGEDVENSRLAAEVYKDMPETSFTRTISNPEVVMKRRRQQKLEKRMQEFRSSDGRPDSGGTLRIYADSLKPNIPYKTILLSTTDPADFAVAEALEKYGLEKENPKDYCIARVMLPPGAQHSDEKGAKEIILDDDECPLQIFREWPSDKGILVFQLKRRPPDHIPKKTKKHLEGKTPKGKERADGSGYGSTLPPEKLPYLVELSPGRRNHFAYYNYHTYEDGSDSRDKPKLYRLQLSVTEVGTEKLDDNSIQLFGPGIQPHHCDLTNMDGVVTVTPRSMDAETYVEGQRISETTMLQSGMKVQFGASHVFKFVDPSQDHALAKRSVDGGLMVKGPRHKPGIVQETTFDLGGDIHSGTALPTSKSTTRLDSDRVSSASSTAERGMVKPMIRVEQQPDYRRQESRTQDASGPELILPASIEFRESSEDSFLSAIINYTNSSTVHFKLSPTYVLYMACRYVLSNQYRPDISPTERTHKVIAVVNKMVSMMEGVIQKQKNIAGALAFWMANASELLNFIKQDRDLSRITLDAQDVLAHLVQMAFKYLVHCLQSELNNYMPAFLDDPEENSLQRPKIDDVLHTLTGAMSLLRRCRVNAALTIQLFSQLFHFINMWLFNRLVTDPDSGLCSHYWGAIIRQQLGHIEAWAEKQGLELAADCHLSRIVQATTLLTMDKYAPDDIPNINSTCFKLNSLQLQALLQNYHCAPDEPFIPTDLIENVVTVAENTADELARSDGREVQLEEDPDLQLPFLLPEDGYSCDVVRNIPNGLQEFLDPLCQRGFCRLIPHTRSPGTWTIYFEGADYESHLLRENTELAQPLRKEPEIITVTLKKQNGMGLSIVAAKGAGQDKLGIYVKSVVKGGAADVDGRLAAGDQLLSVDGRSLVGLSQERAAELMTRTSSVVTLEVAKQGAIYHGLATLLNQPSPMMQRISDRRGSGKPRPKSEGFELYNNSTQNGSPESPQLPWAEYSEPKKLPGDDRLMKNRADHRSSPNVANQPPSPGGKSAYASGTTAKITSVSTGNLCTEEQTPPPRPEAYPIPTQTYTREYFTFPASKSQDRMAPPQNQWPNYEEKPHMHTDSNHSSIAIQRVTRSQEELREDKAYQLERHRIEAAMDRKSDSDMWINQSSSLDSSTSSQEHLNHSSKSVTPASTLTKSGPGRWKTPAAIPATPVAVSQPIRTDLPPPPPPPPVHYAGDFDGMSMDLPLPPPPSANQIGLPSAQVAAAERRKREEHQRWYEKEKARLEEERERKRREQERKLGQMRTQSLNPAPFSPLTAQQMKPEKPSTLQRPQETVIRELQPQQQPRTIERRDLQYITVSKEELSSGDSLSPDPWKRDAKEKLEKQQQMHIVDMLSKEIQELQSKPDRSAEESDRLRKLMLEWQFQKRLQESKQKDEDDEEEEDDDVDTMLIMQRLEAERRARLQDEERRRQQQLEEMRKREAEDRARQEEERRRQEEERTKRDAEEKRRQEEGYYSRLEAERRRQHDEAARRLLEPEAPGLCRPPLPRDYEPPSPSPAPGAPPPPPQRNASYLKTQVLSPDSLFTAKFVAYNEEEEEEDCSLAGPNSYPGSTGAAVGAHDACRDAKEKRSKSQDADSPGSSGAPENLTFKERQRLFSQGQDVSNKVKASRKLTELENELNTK
T6 sequence (Q6P0Q8 whole entry, the tested form may be a part): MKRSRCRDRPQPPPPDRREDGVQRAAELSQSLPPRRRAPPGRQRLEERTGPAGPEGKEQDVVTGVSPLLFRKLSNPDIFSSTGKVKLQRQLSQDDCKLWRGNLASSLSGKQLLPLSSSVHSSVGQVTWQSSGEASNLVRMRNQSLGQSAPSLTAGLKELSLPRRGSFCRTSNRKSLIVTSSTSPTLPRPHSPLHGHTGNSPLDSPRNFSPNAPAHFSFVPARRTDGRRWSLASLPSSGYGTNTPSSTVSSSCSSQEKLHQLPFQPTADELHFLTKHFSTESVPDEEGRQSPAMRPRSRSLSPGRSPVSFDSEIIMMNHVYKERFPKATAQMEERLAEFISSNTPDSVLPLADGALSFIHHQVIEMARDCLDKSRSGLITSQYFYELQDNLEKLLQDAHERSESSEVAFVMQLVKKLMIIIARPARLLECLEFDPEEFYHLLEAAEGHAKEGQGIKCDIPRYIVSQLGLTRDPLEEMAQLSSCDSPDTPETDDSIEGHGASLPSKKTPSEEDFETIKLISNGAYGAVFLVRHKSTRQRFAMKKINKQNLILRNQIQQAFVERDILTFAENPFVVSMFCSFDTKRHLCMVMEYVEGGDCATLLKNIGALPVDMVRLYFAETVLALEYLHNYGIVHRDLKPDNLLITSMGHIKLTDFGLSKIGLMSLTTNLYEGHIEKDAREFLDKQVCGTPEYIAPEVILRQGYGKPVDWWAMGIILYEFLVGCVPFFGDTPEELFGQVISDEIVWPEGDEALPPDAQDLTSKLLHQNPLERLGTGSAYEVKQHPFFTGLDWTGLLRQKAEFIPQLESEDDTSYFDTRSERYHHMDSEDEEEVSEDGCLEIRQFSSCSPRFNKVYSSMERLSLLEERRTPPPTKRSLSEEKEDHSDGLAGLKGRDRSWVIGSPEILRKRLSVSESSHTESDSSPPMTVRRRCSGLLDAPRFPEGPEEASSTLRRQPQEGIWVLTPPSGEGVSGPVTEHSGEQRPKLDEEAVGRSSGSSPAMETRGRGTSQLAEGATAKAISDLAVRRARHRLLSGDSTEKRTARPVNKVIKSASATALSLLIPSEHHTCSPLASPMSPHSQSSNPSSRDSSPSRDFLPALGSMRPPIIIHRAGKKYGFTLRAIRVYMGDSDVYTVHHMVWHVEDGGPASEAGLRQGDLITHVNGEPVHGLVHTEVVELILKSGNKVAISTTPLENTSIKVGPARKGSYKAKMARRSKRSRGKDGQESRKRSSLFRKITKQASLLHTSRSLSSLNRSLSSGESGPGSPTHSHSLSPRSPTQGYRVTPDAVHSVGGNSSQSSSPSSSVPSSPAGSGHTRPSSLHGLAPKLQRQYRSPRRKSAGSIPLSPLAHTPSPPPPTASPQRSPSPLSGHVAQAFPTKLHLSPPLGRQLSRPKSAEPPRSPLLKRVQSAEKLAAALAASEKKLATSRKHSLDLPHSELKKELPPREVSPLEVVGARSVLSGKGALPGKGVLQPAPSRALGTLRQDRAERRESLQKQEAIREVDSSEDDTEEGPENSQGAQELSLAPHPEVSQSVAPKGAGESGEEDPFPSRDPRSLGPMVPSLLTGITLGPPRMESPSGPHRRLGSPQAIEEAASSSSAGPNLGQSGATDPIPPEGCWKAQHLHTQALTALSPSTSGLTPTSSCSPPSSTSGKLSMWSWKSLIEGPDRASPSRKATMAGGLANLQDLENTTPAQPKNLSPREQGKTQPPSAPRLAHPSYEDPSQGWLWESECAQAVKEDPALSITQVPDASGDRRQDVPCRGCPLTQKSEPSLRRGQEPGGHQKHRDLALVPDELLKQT

Classification ([1]; PDZ PTPL-1, PDZ Domain 2): 3 (A450 nm 2-3)
Classification ([2]; PDZ KIAA1634, PDZ Domain 2): 2 (A450 nm 1-2)
pKd [3]: 5.30
pKd [4]: 5.30
Molecule: CC[C@H](C)[C@H](NC(=O)CCCC[C@@H]1SC[C@@H]2NC(=O)N[C@@H]21)C(=O)N[C@H](C(=O)N[C@H](C(=O)N[C@H](C(=O)N[C@H](C(=O)N[C@H](C(=O)N[C@@H](CCSC)C(=O)N[C@H](C(=O)N[C@H](C(=O)N[C@@H](CC(N)=O)C(=O)N[C@H](C(=O)N[C@@H](CC(=O)O)C(=O)N[C@@H](Cc1ccccc1)C(=O)N1CCC[C@H]1C(=O)N1CCC[C@H]1C(=O)N[C@@H](CCCCN)C(=O)N[C@@H](CCC(=O)O)C(=O)N[C@@H](CO)C(=O)N[C@@H](CO)C(=O)N[C@@H](CC(C)C)C(=O)O)C(C)C)[C@@H](C)O)C(C)C)[C@@H](C)O)C(C)C)C(C)C)[C@@H](C)O)C(C)C [ActRIIA] (Biotin-IVTVVTMVTNVDFPPKESSL-OH; C-terminus assumed)

Classification [5]: 4 (A450 nm 3-4)
Classification ([6]; PDZ KIAA0807(S), PDZ Domain 1): 1 (A450 nm 0-1)
Classification ([6]; PDZ KIAA807, PDZ Domain not given): 1 (A450 nm 0-1)
pKd [7]: 5.60
Molecule: AKT-1 (Biotin-VDSERRPHFPQFSYSASSTA)

Classification [8]: 2 (A450 nm 1-2)
Classification [9]: 2 (A450 nm 1-2)
Classification ([2]; PDZ KIAA1634, PDZ Domain 1): 1 (A450 nm 0-1)
Molecule: SSPDSSYQGKGFVMSRAMYV (Biotin-SSPDSSYQGKGFVMSRAMYV) [Nectin 2]

Classification [8]: 1 (A450 nm 0-1)
Classification ([1]; PDZ PTPL-1, PDZ Domain 4): 1 (A450 nm 0-1)
Classification [10]: 1 (A450 nm 0-1)
Molecule: YSQPSARSEGEFKQTSSFLV (Biotin-YSQPSARSEGEFKQTSSFLV) [JAM (junctional adhesion molecule)]
